According to US20230295289A1 (INTERVET, published 2023):
Values belong to the molecule of their own block, whether it stands above or below them.

How the values were obtained:
[1] = biological target: canine IL-31RA ECD-10His (canine); test: ELISA: IL-31RA ECD coated at 10 ug/mL, biotinylated IL-31 titrated 3-fold from 10 ug/mL, HRP-streptavidin
[2] = biological target: T1, cIL-22-His (canine IL-22 with a His Tag) (canine); test: ELISA: cIL-22-His coated, Fc fusion titrated from 10 ug/mL, anti-dog IgG (Fc)-HRP
T1 construct: also called cILHIS
T1 chain: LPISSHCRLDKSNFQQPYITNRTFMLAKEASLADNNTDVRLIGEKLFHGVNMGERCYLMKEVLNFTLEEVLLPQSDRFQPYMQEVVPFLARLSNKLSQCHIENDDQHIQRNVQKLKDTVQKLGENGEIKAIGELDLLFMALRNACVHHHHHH

canine IL-31RA ECD-10His (canine), sequence (chain, as listed by the source limits assumed): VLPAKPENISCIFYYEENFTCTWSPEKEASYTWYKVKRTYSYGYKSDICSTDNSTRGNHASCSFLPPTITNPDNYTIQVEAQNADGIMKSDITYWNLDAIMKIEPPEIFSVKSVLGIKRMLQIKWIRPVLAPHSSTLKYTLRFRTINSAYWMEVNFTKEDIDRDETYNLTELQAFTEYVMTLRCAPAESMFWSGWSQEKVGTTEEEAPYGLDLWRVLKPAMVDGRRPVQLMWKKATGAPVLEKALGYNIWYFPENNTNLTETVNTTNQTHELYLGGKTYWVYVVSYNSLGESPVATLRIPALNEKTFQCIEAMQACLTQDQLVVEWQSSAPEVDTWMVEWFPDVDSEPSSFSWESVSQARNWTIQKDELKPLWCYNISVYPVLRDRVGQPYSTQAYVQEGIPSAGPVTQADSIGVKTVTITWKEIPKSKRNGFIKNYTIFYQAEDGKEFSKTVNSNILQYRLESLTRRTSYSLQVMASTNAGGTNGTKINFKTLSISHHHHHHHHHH

EC50 [1]: 0.368 µg/mL
Molecule: biotinylated canine IL-31 (ligand)

binding result [2]: binds
B1: canine IL-22BP-FcB fusion protein (canine IL-22BP (IL-22RA2) with canine IgG-B Fc) (Fc fusion)
chain: TQSAYESLKPQRVHFQSRNFHNILHWQPGRACTSNGSVYFVQYKMYGQRQWKNKEDCWGILECFCDLTNETSDIQEPYYGRVRTTSAGIHSGWTMTQRFTPWWETKIDPPIINITQVNGSLLVILHAPSLPYRDQKGKNVSIENYYELLYRVFIINNSLEKEQKVYEGAHRIVEIGALAPHTGYCVVAEMYQPMLDRRSPRSEERCMELPGGGGSGGGGSPKRENGRVPRPPDCPKCPAPEMLGGPSVFIFPPKPKDTLLIARTPEVTCVVVALDPEDPEVQISWFVDGKQMQTAKTQPREEQFAGTYRVVSVLPIGHQDWLKGKQFTCKVNNKALPSPIERTISKARGQAHQPSVYVLPPSREELSKNTVSLTCLIKDFFPPDIDVEWQSNGQQEPESKYRTTPPQLDEDGSYFLYSKLSVDKSRWQRGDTFICAVMHEALHNHYTQESLSHSPG
notes: also called cIL-22BP-Fc fusion protein; canine IL-22BP-Fc fusion protein

binding result [2]: binds
B2: canine IL-22RA1-FcB fusion protein (extracellular domain of canine IL-22RA1 with canine IgG-B Fc) (Fc fusion)
chain: AEDTSDLLQYVKFQSSNFENILTWDSGLESAPDVVYSVEYKTYGKKEWLAKEGCQRITRKSCNLTTETGNHTEHYYARVTAVSAGGRSATKMTDRFSSMQQTTIKPPDVTCIPKVRSIQMIVHPTSTPIHAEDGHRLTLEDIFQDLFYRLELQVNHTYQMHLGGKQRDYEFIGLSPDTEFLGTITISVPNFFKESAPYVCRVKTLPDRTWTGGGGSGGGGSPKRENGRVPRPPDCPKCPAPEMLGGPSVFIFPPKPKDTLLIARTPEVTCVVVALDPEDPEVQISWFVDGKQMQTAKTQPREEQFAGTYRVVSVLPIGHQDWLKGKQFTCKVNNKALPSPIERTISKARGQAHQPSVYVLPPSREELSKNTVSLTCLIKDFFPPDIDVEWQSNGQQEPESKYRTTPPQLDEDGSYFLYSKLSVDKSRWQRGDTFICAVMHEALHNHYTQESLSHSPG
notes: also called cIL-22RA1-Fc fusion protein; canine IL-22RA1-Fc fusion protein
